Test results: paper PMC3839082
Where a chain is given by its changes, count along the chain named. Numbers in names are those of the source.

B1: hCINAP (Homo sapiens) (protein)
chain: MLLPNILLTGTPGVGKTTLGKELASKSGLKYINVGDLAREEQLYDGYDEEYDCPILDEDRVVDELDNQMREGGVIVDYHGCDFFPERWFHIVFVLRTDTNVLYERLETRGYNEKKLTDNIQCEIFQVLYEEATASYKEEIVHQLPSNKPEELENNVDQILKWIEQWIKDHNS
B2: hCINAP-H79G (Homo sapiens; H79G) (protein)
chain: B1 chain with H79G

Substrate: Nc1ncnc2c1ncn2[C@@H]1O[C@H](COP(=O)(O)OP(=O)(O)OP(=O)(O)O)[C@@H](O)[C@H]1O
Experiment: purified protein
Assay type: biochemical, Homo sapiens
Details: Mg2+ ATP binding site

| Protein | Km [µM] | kcat/Km [M⁻¹ s⁻¹] |
| --- | --- | --- |
| B1 | 45 ± 5 | 140 |
| B2 | 93 ± 8 |  |
